{"source": "patent US6716960B2", "about": "“Mch3, a novel apoptotic protease, nucleic acids encoding and methods of use” (Idun Pharmaceuticals, Inc., priority 1995, dated 2004)", "molecules": {"B1": {"name": "Mch3α: full length apoptotic cysteine protease, 303 amino acids (SEQ ID NO: 2), expressed from recombinant baculovirus (protein)", "chain": "MADDQGCIEEQGVEDSANEDSVDAKPDRSSFVPSLFSKKKKNVTMRSIKTTRDRVPTYQYNMNFEKLGKCIIINNKNFDKVTGMGVRNGTDKDAEALFKCFRSLGFDVIVYNDCSCAKMQDLLKKASEEDHTNAACFACILLSHGEENVIYGKDGVTPIKDLTAHFRGDRCKTLLEKPKLFFIQACRGTELDDGIQADSGPINDTDANPRYKIPVEADFLFAYSTVPGYYSWRSPGRGSWFVQALCSILEEHGKDLEIMQILTRVNDRVARHFESQSDDPHFHEKKQIPCVVSMLTKELYFSQ"}, "B2": {"name": "truncated Mch3α (amino acids 1-198): truncated Mch3α that encodes only the p20 subunit (protein)", "chain": "MADDQGCIEEQGVEDSANEDSVDAKPDRSSFVPSLFSKKKKNVTMRSIKTTRDRVPTYQYNMNFEKLGKCIIINNKNFDKVTGMGVRNGTDKDAEALFKCFRSLGFDVIVYNDCSCAKMQDLLKKASEEDHTNAACFACILLSHGEENVIYGKDGVTPIKDLTAHFRGDRCKTLLEKPKLFFIQACRGTELDDGIQAD"}, "B3": {"name": "truncated Mch3α (amino acids 199-303): truncated Mch3α that encodes only the p12 subunit (protein)", "chain": "SGPINDTDANPRYKIPVEADFLFAYSTVPGYYSWRSPGRGSWFVQALCSILEEHGKDLEIMQILTRVNDRVARHFESQSDDPHFHEKKQIPCVVSMLTKELYFSQ"}}, "key": {"Mch3α": {"target": "T1, Mch3α (Homo sapiens, UniProt P55210)", "T1 construct": "This assay employs Mch3 polypeptide expressed in an active, processed form recombinantly in E. coli; becomes active following proteolytic cleavage into two subunits of approximately 17 kD (p17) and 12 kD (p12); GST (N, cleaved yes); made in house; host or cells: E. coli (DH5α), pGEX-2T; bacterial lysates", "T1 sequence (P55210 24-198 limits assumed)": "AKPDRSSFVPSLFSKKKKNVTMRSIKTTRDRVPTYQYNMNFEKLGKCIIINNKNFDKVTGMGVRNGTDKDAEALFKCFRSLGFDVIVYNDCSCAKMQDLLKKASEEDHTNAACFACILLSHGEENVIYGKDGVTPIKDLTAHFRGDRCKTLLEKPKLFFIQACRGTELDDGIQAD", "T1 sequence (P55210 207-303 limits assumed)": "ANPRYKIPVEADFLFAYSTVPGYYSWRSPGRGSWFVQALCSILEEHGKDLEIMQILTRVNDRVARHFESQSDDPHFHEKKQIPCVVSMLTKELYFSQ", "experiment": "Continuous fluorometric assay of recombinant Mch3α with DEVD-AMC substrate", "format": "biochemical", "procedure": "The kinetic properties of the bacterially expressed recombinant Mch3α and CPP32 were determined using the tetrapeptide substate DEVD-AMC in a continuous fluorometric assay. The DEVD-AMC substrate is the poly(ADP-ribose)polymerase (PARP) cleavage site P1-P4 tetrapeptide (Nicholson et al., Nature 376:37-43 (1995)). Briefly, activity of Mch3α and CPP32 was measured using bacterial lysates in ICE buffer (25 mM HEPES, 1 mM EDTA, 5 mM DTT, 0.10% CHAPS, 10% sucrose, pH 7.5) at room temperature (24-25° C.)."}, "CPP32 [1]": {"target": "T2, CPP32 (Homo sapiens, UniProt P42574)", "T2 construct": "CPP32 is cleaved at Asp28 and Asp175 to generate two polypeptides of molecular masses of 17 kDa (p17) and 12 kDa (p12); GST (N, cleaved yes); made in house; host or cells: E. coli; bacterial lysates", "T2 sequence (P42574 29-175 limits assumed)": "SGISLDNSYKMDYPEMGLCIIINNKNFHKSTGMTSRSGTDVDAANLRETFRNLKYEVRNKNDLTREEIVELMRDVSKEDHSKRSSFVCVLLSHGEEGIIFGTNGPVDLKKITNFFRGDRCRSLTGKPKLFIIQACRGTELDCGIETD", "T2 sequence (P42574 176-277 limits assumed)": "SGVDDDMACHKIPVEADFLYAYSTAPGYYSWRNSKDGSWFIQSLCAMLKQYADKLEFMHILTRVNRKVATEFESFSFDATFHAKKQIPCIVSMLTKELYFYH", "experiment": "Continuous fluorometric assay of recombinant CPP32 with DEVD-AMC substrate", "format": "biochemical", "conditions": "for Km: recombinant CPP32, bacterial lysate, ICE buffer pH 7.5, 24-25° C., substrate = label"}, "CPP32 [2]": {"target": "T2, CPP32", "conditions": "purified human CPP32, reported by Nicholson et al.; cited from earlier work"}, "Sf9 cells": {"tested_on": "Sf9 cells", "experiment": "Induction of apoptosis in Sf9 cells infected with recombinant baculoviruses", "conditions": "for Induction of apoptosis: expressed separately in Sf9 cells"}}, "note": "Where two headings read alike, the source gives them in different places."}
{"molecule": "CC(=O)N[C@@H](CC(=O)O)C(=O)N[C@@H](CCC(=O)O)C(=O)N[C@H](C(=O)N[C@H](C=O)CC(=O)O)C(C)C", "note": "[DEVDaldehyde, DEVD-CHO]", "values": [{"measurement": "Ki", "setting": "Mch3α", "value": 0.0018, "unit": "µM"}]}
{"molecule": "CC(=O)N[C@@H](Cc1ccc(O)cc1)C(=O)N[C@H](C(=O)N[C@@H](C)C(=O)N[C@H](C=O)CC(=O)O)C(C)C", "note": "[YVADaldehyde, YVAD-CHO]", "values": [{"measurement": "Ki", "setting": "CPP32 [1]", "value": 8.5, "unit": "µM"}, {"measurement": "Ki", "setting": "Mch3α", "value": "> 10", "unit": "µM"}]}
{"molecule": "DEVD-AMC [DEVDamc]", "values": [{"measurement": "Km", "setting": "CPP32 [2]", "value": "9.7 ± 1", "unit": "µM"}, {"measurement": "Km", "setting": "CPP32 [1]", "value": 13, "unit": "µM"}, {"measurement": "Km", "setting": "Mch3α; bacterial lysate, ICE buffer pH 7.5, 24-25° C., substrate = label", "value": 51, "unit": "µM"}]}
{"molecule": "YVADamc: YVAD tetrapeptide amc substrate listed in Table I", "values": [{"measurement": "Km", "setting": "CPP32 [1]", "value": "> 500", "unit": "µM"}]}
{"molecule": "B1", "values": [{"measurement": "Cells undergoing apoptosis", "setting": "Sf9 cells; expression in Sf9 cells, 42-48 h postinfection", "value": "approximately 50%"}]}
{"molecule": "B2", "values": [{"measurement": "Induction of apoptosis", "setting": "Sf9 cells", "value": "unable to induce apoptosis"}]}
{"molecule": "B3", "values": [{"measurement": "Induction of apoptosis", "setting": "Sf9 cells", "value": "unable to induce apoptosis"}]}
